Reference: patent EP4806921A1 (Daan Biotherapeutics, Inc., dated 2026)

T1: CEACAM5 protein (Acrobiosystems) (UniProt P06731 35-685)
T1 construct: also called CEACAM5 full-length protein
T1 sequence (looked up): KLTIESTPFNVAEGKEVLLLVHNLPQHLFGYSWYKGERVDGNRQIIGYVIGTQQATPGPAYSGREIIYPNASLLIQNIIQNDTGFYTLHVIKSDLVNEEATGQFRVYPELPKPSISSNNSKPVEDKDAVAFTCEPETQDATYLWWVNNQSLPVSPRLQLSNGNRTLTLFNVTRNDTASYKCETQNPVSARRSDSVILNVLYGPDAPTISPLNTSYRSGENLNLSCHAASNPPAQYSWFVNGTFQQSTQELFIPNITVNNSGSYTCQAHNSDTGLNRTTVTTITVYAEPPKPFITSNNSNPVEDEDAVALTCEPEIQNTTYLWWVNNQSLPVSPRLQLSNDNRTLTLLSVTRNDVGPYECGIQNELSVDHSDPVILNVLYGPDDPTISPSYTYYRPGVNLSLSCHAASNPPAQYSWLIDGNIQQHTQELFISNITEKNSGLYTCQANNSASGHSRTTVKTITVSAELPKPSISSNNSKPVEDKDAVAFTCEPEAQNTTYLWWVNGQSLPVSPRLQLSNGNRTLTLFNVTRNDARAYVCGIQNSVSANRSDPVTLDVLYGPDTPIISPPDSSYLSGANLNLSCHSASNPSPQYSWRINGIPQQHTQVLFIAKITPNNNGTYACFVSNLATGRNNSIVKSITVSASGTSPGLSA


Target: T1, CEACAM5 protein (Acrobiosystems)
Test: ELISA on coated CEACAM5 protein (Acrobiosystems), antibody 200 nM to 0.0004 nM

Row | binding result | Binder
1 | binds | humanized 94E12E2-06 antibody (antibody, V domains shown) VH: QVQLVQSGAEVKKPGASVKVSCKASGFNIKDNYMHWVRQAPGQGLEWIGWIDPENGDTEYDPKFQGRATMTADTSISTAYMELSRLRSDDTAVYYCNIITMATPYPMDYWGQGTLVTVSS VL: EIVLTQSPDFQSVTPKEKVTITCSASTSVIYMHWFQQKPDQSPKLWIYSTSNLASGVPSRFSGSGSGTDYTLTINSLEAEDAATYYCQQRSSYPLTFGQGTKLEIKR
2 | binds | humanized 94E12E2-04 antibody (antibody, V domains shown) VH: EVQLVESGGGLVQPGGSLRLSCAASGFNIKDNYMHWVRQAPGKGLEWIGWIDPENGDTEYDPKFQGRATMSADTSKNTAYLQMNSLRAEDTAVYYCNIITMATPYPMDYWGQGTLVTVSS VL: DIQLTQSPSSLSASVGDRVTITCSASTSVIYMHWFQQKPGKAPKLWIYSTSNLASGVPSRFSGSGSGTDYTLTISSLQPEDFATYYCQQRSSYPLTFGQGTKVEIKR
